Measured values from patent publication US20110239311A1 (MEDIZINISCHE UNIVERSITAT INNSBRUCK, published 2011).

Experiments:
[1] = biological target: T1, endogenous PKCalpha from Jurkat T cell lysate (human, UniProt P17252 2-672); test: GST pull down from Jurkat T cell lysate, immunoblot
T1 construct: also called PKCα
Experimental: (§1) GST pull down assay: 1×10⁷ Jurkat T cells were lysed in 1 ml lysis buffer (25 mM MES pH 6.5, 5 mM NaF, 1 mM Na₃VO₄, 2 mM EDTA, 150 mM NaCl, 0.5% TritonX-100, 50 μg/ml aprotinin and leupeptin). Lysates were precleared for 30 min at 4° C. Thereafter incubation with purified recombinant GST-NR2F6 fusion proteins for 3 h at 4° C., 5× washing in lysis buffer, SDS-PAGE under reducing conditions on Bis/Tris-buffered gels (Novex, San Diego, Calif.) was performed. Proteins were transferred onto a polyvinyl-difluoridon (PVDF) membrane (Millipore, Bedford, Mass.) by semi-dry blotting (90 mA, 80 min, 4° C.). […] Peroxidase-conjugated antibodies (Pierce, Rockford, Ill.) served as secondary reagent (1:5,000). For antigen detection enhanced chemiluminescence was used (Super Signal, Pierce, Rockford, Ill.).

[2] = biological target: T2, endogenous PKCtheta from Jurkat T cell lysate (human, UniProt Q04759 1-706); test: as above
T2 construct: also called PKCθ
Experimental: as §1

T2 sequence (Q04759 whole entry): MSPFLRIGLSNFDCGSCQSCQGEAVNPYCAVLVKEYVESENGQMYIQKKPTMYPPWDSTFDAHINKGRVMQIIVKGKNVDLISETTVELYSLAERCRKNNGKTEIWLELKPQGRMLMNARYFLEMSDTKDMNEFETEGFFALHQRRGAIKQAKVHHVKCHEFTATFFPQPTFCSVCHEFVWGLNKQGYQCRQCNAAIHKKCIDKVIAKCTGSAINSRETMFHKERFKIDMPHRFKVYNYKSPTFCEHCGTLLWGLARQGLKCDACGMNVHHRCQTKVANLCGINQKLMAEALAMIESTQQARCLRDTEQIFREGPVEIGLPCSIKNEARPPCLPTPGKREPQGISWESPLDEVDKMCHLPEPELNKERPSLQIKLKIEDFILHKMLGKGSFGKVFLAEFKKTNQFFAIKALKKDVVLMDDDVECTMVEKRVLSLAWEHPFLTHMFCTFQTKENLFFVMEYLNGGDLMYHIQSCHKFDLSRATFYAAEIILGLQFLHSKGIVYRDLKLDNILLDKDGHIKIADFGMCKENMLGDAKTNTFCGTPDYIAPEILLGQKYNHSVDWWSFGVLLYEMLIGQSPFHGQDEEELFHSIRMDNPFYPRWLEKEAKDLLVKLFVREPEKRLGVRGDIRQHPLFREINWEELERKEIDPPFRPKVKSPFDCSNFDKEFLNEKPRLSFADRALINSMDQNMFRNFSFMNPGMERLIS

- binding result [1]: binds
- binding result [2]: binds
B1: GST-NR2F6 fusion protein, wild-type, full-length (purified recombinant) (other)
chain: MAMVTGGWGGPGGDTNGVDKAGGYPRAAEDDSASPPGAASDAEPGDEERPGLQVDCVVCGDKSSGKHYGVFTCEGCKSFFKRSIRRNLSYTCRSNRDCQIDQHHRNQCQYCRLKKCFRVGMRKEAVQRGRIPHSLPGAVAASSGSPPGSALAAVASGGDLFPGQPVSELIAQLLRAEPYPAAAGRFGAGGGAAGAVLGIDNVCELAARLLFSTVEWARHAPFFPELPVADQVALLRLSWSELFVLNAAQAALPLHTAPLLAAAGLHAAPMAAERAVAFMDQVRAFQEQVDKLGRLQVDSAEYGCLKAIALFTPDACGLSDPAHVESLQEKAQVALTEYVRAQYPSQPQRFGRLLLRLPALRAVPASLISQLFFMRLVGKTPIETLIRDMLLSGSTFNWPYGSGQ
notes: GST is placed at the N-terminus from the name 'GST-NR2F6' only; also called recombinant NR2F6; not shown: glutathione S-transferase (GST) fusion tag
